Experimental data from patent US12240882B2, “Fusion proteins comprising an engineered knottin peptide and uses thereof” (The Board of Trustees of the Leland Stanford Junior …, priority 2010, dated 2025).
Positions count from the first letter of the chain named. Numbers in names are those of the source. Ends that are not written are not given here.

Key:
HUVECs = test: HUVEC proliferation assay stimulated with HGF; conditions: 0.5 nM HGF
[1] = tested on: human umbilical vein endothelial cells (HUVECs); test: HUVEC cell binding assay of knottin-NK1 fusions; conditions: read-out: binding affinity (KD) towards HUVECs
Excerpt: HUVECs express medium levels of the αvβ3, αvβ5 integrins, the Met receptor, and a high level of the […] integrin.

human Met-Fc = human Met-Fc (Homo sapiens, UniProt P08581); test: Dual receptor direct binding assay on K562-αvβ3 cells; conditions: Met-Fc 220 nM, proteins 2 or 20 nM
Chain of human Met-Fc (P08581 with tags, fused parts or gaps limits assumed): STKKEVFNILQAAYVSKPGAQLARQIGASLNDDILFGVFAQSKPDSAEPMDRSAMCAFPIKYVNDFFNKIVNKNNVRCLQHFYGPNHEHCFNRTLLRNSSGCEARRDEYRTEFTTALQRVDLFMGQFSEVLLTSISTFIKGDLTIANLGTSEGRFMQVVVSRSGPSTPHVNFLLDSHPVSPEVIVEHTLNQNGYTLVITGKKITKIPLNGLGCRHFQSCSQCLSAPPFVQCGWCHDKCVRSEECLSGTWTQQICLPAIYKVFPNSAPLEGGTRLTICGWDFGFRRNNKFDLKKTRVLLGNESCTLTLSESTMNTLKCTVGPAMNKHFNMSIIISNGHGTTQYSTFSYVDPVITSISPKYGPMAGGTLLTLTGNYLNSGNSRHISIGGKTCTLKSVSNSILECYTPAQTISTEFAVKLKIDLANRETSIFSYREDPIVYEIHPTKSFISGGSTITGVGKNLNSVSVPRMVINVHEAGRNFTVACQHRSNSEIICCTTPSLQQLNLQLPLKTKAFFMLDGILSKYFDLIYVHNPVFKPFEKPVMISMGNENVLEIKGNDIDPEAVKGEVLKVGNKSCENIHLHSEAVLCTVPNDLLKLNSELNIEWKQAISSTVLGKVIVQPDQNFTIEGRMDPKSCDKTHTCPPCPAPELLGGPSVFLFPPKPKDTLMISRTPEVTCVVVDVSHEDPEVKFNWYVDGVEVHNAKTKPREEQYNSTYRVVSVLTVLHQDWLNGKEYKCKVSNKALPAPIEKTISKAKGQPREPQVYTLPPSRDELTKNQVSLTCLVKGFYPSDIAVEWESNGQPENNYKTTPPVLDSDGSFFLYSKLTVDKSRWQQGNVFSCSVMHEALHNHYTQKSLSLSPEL
Chain of human Met-Fc (P08581 25-307 limits assumed): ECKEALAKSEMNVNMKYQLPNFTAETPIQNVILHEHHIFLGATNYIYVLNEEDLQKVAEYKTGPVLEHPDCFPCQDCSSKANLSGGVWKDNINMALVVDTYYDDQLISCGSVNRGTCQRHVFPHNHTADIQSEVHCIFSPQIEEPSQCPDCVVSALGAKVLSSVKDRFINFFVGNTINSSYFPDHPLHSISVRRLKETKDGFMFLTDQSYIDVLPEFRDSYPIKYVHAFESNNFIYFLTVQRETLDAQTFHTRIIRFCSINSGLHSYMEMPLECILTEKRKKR
Chain of human Met-Fc (P06756 31-889 partner limits assumed): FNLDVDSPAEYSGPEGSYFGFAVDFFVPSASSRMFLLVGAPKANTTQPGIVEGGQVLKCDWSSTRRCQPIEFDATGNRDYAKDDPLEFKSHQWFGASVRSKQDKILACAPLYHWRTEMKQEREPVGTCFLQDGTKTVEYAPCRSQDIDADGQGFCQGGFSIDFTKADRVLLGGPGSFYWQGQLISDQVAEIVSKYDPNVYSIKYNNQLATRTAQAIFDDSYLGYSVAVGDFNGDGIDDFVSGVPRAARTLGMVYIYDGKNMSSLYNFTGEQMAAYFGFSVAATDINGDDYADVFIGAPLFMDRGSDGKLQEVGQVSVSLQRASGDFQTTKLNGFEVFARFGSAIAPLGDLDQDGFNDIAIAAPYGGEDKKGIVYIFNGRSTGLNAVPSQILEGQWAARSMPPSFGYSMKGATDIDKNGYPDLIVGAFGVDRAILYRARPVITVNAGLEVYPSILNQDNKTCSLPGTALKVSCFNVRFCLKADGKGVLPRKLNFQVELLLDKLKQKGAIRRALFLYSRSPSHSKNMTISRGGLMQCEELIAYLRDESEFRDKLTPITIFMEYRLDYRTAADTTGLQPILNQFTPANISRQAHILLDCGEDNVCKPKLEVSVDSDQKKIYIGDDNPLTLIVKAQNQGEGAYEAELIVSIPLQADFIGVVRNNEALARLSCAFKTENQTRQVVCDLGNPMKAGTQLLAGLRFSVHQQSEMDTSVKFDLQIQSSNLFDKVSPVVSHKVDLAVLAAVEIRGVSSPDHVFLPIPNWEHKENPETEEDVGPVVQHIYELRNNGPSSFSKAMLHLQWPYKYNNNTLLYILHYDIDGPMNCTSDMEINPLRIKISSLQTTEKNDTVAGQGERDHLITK
Chain of human Met-Fc (P06756 891-1048 partner limits assumed): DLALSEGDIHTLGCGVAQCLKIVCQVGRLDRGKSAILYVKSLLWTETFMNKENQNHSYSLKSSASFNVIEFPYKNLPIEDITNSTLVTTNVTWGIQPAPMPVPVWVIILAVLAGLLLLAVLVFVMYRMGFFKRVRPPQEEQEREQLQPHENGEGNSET
Chain of human Met-Fc (P05106 27-788 partner): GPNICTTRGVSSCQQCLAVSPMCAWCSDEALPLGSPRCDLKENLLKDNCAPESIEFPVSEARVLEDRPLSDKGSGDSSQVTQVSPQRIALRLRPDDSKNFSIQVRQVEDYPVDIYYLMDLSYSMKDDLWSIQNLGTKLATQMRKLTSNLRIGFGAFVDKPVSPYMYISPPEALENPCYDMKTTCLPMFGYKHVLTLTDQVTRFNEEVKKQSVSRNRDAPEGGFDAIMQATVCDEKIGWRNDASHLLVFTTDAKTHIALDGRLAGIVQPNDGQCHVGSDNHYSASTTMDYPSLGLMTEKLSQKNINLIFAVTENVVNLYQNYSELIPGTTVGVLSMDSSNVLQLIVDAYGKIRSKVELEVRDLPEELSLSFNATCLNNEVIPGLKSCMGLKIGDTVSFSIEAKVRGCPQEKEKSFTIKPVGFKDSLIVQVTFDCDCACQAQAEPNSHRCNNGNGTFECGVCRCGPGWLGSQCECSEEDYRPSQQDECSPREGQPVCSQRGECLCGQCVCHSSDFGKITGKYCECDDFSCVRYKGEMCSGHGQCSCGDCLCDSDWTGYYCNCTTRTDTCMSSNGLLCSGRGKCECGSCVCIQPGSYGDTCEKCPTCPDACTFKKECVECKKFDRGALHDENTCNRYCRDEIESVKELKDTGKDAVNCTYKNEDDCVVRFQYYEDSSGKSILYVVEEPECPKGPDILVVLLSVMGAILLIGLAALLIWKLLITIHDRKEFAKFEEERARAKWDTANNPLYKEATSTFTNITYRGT
Description: In this experiment, a mixture of soluble Alexa-488 labeled human Met-Fc (220 nM) and the mono-specific and the multi-specific proteins (2 or 20 nM) were added to K562-αvβ3 cells. Binding was detected by flow cytometry.

[2] = Serum stability, Western Blot; assay type: in vitro ADME; conditions: 40% human serum, 37° C., 7 days
Description: Serum stability of AgRp7A-M2.2(D127A) and EETI2.5F-M2.2(D127A) was shown when the proteins were incubated with 40% human serum at 37° C. for over several days. Samples were analyzed by Western Blot and detected with an antibody against the FLAG epitope tag.

EETI RGD mutant binding αvβ3, αvβ5, α5β1, SEQ ID NO: 33 GCPRPRGDNPPLTCKQDSDCLAGCVCGPNGFCG (ends and bridges not checked; cysteine pairing not given here) [EETI2.5F]
inhibitory effect on HUVEC proliferation (HUVECs): good inhibition
inhibition of HUVEC proliferation (HUVECs; 1 μM, cells alone=90% inhibition): 70%

B1: EETI2.5F-M2.2(D127A): EETI 2.5F knottin fused to NK1 fragment of HGF (M2.2 (D127A)), SEQ ID NO: 89 (protein)
chain: DYKDDDDKPRGCPRPRGDNPPLTCSQDSDCLAGCVCGPNGFCGYAEGQRKRRNTIHEFKKSAKTTLIKIDPALKIKTEKVNTADQCANRCTRNKGLPFTCKAFVFDKARKRCLWFPFNSMSSGVKKEFGHEFDLYENKDYIRACIIGNGRSYRGTVSITKSGIKCQPWSSMIPHEHSFLPSSYRGEDLRENYCRNPRGEEGGPWCFTSDPEVRYEVCDIPQCSEVETRHHHHHH
Kd [1]: 4.7 ± 0.6 nM
inhibitory effect on HUVEC proliferation (HUVECs): higher inhibitory effects
simultaneous binding to soluble Met-Fc and αvβ3 integrin on cells (human Met-Fc): able to bind to soluble Met-Fc
amount of intact fusion protein in serum [2]: No significant decrease

B2: EETI2.5F-M2.2: EETI 2.5F knottin fused to NK1 fragment of HGF (M2.2), SEQ ID NO: 88 (protein)
chain: B1 chain with A143D
simultaneous binding to soluble Met-Fc and αvβ3 integrin on cells (human Met-Fc): able to bind to soluble Met-Fc

B3: AgRp7A-M2.2(D127A): AgRP 7A knottin fused to NK1 fragment of HGF (M2.2 (D127A)), SEQ ID NO: 86 (protein)
chain: DYKDDDDKPRGCVRLHESCLGQQVPCCDPAATCYCSGRGDNDLVCYCRYAEGQRKRRNTIHEFKKSAKTTLIKIDPALKIKTEKVNTADQCANRCTRNKGLPFTCKAFVFDKARKRCLWFPFNSMSSGVKKEFGHEFDLYENKDYIRACIIGNGRSYRGTVSITKSGIKCQPWSSMIPHEHSFLPSSYRGEDLRENYCRNPRGEEGGPWCFTSDPEVRYEVCDIPQCSEVETRHHHHHH
Kd [1]: 9.4 ± 1 nM
inhibitory effect on HUVEC proliferation (HUVECs): higher inhibitory effects
simultaneous binding to soluble Met-Fc and αvβ3 integrin on cells (human Met-Fc): able to bind to soluble Met-Fc
amount of intact fusion protein in serum [2]: No significant decrease

B4: AgRp7A-M2.2: AgRP 7A knottin fused to NK1 fragment of HGF (M2.2), SEQ ID NO: 85 (protein)
chain: B3 chain with A148D
simultaneous binding to soluble Met-Fc and αvβ3 integrin on cells (human Met-Fc): able to bind to soluble Met-Fc
